Data on 2 molecules can be found in patent publication US20150369821A1 (Pieris, published 2015).

Test [1] has as its target T1, non-modified Hepcidin-25 (human, not fully specified).
T1 construct: also called Hepc25; mature human hepcidin
T1 peptide: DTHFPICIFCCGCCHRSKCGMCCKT
Put plainly: competition ELISA, non-modified Hepcidin-25 in solution (25 pM). Background: In an ELISA, binding on a coated surface is turned into a signal by an enzyme label.

The target in test [2] is T1, non-modified Hepcidin-25. Put plainly: cell-based or functional assay.

B1: hepcidin-specific lipocalin mutein of SEQ ID NO: 10 (designed binder)
chain: QDSTSDLIPAPPLSKVPLQQNFQDNQFHGKWYVVGLAGNEILREDKDPMKMWATIYELKEDRSYNVTIVMFLAKKCEYLFQTFVPGSQPGEFTLGDIKSSPGRTSGLVRVVSTNYNQHAMVFFKVVWQNREVFWITLYGRTKELTPELKENFIRFSKSLGLPENHIVFPVPIDQCIDGF
notes: Mutein of human NGAL (lipocalin 2); also called hNGAL mutein
A word on the IC50: it is the concentration needed to halve the response being measured. In the test with non-modified Hepcidin-25 [1], B1 gave an IC50 of 0.1 nM. Also, the “In Vitro Neutralization Activity Assay, IC50 [nM] (cell-based hepcidin-induced internalization of ferroportin-GFP)” value in the test with non-modified Hepcidin-25 [2] was 31 nM.

B2: hepcidin-specific lipocalin mutein of SEQ ID NO: 8 (designed binder)
chain: QDSTSDLIPAPPLSKVPLQQNFQDNQFHGKWYVVGLAGNEVLREDKDPMKMWATIYELKEDKSYNVTIVMPLAEKCEYLFQTFVPGSQPGEFTLGGIKSGPGRTSGLVRVVSTNYNQHAMVFFKVVWQNREVFWVTLYGRTKELTSELKENFIRFSKSLGLPENHIVFPVPIDQCIDG
notes: as for B1
B2: the half-maximal inhibitory concentration (IC50) with non-modified Hepcidin-25 [1] came to 0.18 nM. The “In Vitro Neutralization Activity Assay, IC50 [nM] (cell-based hepcidin-induced internalization of ferroportin-GFP)” value in the test with non-modified Hepcidin-25 [2] is 25 nM.
